Assay [1] addresses TACE/ADAM17 on human monocytic cells (THP-1 cells; monocyte-derived macrophages) (human) (UniProt P78536).
The target of assay [2] is soluble form of TACE in which the transmembrane and C-terminal cytoplasmic domains are deleted (TACE R651) (human) (UniProt P78536). The assay can be described thus: TACE inhibition kinetics at pH 7.5.
For assay [3], the target named is T1, ADAMTS-4 (as used in Example 4; form not stated) (Homo sapiens (Human)) (UniProt O75173).
T1 sequence: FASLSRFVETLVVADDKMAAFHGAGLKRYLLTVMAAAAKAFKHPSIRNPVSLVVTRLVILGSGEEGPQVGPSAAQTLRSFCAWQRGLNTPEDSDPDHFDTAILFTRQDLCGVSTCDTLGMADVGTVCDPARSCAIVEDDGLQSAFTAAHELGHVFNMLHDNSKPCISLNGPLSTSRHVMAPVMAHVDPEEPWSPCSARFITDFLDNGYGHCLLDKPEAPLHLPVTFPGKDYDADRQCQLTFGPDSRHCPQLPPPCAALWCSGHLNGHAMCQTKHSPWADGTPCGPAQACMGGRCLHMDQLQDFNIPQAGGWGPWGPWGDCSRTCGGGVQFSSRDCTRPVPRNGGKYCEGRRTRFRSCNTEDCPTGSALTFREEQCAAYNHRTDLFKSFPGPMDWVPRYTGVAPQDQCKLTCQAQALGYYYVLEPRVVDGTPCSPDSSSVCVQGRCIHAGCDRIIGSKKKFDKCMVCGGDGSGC
Briefly: GST-IGD-FLAG substrate assay, Ki(app).

Assay [4] addresses ADAMTS-5 (Homo sapiens (Human)) (UniProt Q9UNA0). Briefly: GST-IGD-FLAG substrate assay, Ki(app).
The target of assay [5] is catalytic domain of stromelysin 1 (MMP-3(ΔC)) (Homo sapiens (Human)) (UniProt P08254). Briefly: enzyme inhibition kinetics, Ki(app), as in Example 1.
For assay [6], the target named is full-length collagenase 1 (MMP-1) (Homo sapiens (Human)) (UniProt P03956). The description is as above.
Assay [7] concerns the target gelatinase A (MMP-2) (Homo sapiens (Human)) (UniProt P08253). The description is as above.
Assay [8] concerns the target full-length collagenase 1 (MMP-1) (Homo sapiens (Human)) (UniProt P03956). Briefly: MMP-1 inhibition under the conditions used for TACE activity measurements.
Assay [9] deals with soluble form of TACE in which the transmembrane and C-terminal cytoplasmic domains are deleted (TACE R651) (human) (UniProt P78536). Briefly: TACE inhibition kinetics, Ki(app), pH 9.0, fit with equation 3 (cooperative).
Assay [10] has the same target.

Bounds are passed on as bounds.

full-length collagenase 1 (MMP-1) (Homo sapiens (Human)), sequence (P03956 100-469 limits assumed): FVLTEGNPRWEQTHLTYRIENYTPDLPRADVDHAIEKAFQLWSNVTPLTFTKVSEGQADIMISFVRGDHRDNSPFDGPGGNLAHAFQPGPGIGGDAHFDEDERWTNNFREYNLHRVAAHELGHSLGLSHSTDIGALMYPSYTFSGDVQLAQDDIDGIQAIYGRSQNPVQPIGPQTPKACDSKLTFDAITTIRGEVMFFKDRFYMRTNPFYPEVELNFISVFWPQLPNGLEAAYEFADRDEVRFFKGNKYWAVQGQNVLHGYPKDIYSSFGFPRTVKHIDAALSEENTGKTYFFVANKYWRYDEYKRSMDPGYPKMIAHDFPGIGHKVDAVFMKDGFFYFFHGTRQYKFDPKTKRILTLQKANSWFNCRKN
gelatinase A (MMP-2) (Homo sapiens (Human)), sequence (P08253 110-660 limits assumed): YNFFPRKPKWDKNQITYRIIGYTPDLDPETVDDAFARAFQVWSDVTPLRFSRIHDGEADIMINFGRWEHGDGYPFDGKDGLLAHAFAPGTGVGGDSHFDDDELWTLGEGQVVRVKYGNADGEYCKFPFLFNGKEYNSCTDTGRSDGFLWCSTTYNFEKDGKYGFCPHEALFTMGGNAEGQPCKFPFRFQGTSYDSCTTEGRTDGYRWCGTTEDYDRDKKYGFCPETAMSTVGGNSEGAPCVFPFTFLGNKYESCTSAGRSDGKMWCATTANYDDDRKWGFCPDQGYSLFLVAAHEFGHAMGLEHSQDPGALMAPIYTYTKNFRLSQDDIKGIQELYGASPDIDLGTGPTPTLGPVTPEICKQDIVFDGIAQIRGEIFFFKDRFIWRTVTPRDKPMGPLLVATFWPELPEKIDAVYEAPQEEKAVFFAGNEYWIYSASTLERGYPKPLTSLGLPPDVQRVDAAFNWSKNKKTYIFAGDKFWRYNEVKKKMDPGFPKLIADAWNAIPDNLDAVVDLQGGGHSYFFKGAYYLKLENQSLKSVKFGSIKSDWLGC

B1: wild-type N-TIMP-3 (N-terminal inhibitory domain of tissue inhibitor of metalloproteinase-3), C-terminally His-tagged (protein)
chain: CTCSPSHPQDAFCNSDIVIRAKVVGKKLVKEGPFGTLVYTIKQMKMYRGFTKMPHVQYIHTEASESLCGLKLEVNKYQYLLTGRVYDGKMYTGLCNFVERWDQLTLSQRKGLNYRYHLGCN
Turning to B1, the LPS stimulated TNFα release by monocyte-derived macrophages (ELISA) in assay [1] turned out to be 180 nM. The Ki in assay [2] is 26 nM; in assay [3], 2.4 nM; in [4], 0.4 nM; in assay [5], 1.8 nM; in assay [6] it was 8.2 nM; in [7], 5.1 nM. Moreover, the Ki in [8] turned out to be 1.6 nM; in [9], 13.7 nM.

B2: (-2A)N-TIMP-3 (protein)
chain: AACTCSPSHPQDAFCNSDIVIRAKVVGKKLVKEGPFGTLVYTIKQMKMYRGFTKMPHVQYIHTEASESLCGLKLEVNKYQYLLTGRVYDGKMYTGLCNFVERWDQLTLSQRKGLNYRYHLGCN
In assay [10], B2 gave an inhibition of TACE activity (% inhibition at 100 nM) of 80 to 90. Besides, the Ki in [5] was greater than 250 nM.

For the origin of these results see US20090318342A1, “Compounds” (IMPERIAL INNOVATIONS LIMITED, priority 2005, published 2009).
